Here are results for 2 molecules from patent US20220048996A1 (F STAR BETA, published 2022).

The target of test [1] is T1, human OX40 expressed on DO11.10 cells (DO11.10-hOX40) (human, UniProt P43489 29-277).
T1 construct: Also used here for OX40 on primary human T cells in the functional rows; also called human OX40 receptor; OX40 on human T cells
T1 sequence: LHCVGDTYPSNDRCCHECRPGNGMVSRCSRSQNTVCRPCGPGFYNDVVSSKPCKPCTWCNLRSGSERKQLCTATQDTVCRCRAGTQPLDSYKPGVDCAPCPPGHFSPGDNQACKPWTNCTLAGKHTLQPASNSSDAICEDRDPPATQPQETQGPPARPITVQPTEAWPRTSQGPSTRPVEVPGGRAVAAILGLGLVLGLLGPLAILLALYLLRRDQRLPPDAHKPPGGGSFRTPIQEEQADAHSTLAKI
Put plainly: flow cytometry on DO11.10 cells expressing the target. (In flow cytometry, cells or beads pass a laser one at a time.)

The target in test [2] is T2, cynomolgus OX40 expressed on DO11.10 cells (DO11.10-cOX40) (cynomolgus, UniProt P43489 29-277 (human entry)).
T2 chain: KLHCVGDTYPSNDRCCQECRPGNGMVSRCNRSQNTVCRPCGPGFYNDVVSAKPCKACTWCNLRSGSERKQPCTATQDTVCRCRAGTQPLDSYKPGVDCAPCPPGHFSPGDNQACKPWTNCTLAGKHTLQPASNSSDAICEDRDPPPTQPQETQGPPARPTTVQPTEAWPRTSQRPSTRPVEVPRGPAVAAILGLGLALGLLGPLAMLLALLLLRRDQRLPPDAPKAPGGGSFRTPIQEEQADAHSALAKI
The test is described as above.

Test [3] has as its target T3, hOX40-mFc (human).
T3 construct: Dimeric; also called human OX40-mFc
T3 chain: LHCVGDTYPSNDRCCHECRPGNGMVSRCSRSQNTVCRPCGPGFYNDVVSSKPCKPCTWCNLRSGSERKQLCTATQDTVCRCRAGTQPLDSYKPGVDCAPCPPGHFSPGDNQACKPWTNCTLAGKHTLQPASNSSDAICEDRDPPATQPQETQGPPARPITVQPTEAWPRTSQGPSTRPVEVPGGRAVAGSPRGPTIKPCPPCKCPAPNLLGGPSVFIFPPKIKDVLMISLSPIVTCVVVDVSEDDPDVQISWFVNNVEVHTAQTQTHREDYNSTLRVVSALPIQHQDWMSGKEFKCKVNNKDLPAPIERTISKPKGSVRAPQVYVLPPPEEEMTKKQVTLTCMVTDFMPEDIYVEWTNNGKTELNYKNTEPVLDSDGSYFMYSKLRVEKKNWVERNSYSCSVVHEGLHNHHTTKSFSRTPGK
Put plainly: SPR, antibody captured via anti-human Fab, antigen flowed.

Test [4] concerns the target T4, cOX40-mFc (cynomolgus).
T4 construct: Dimeric; also called cyno OX40-mFc
T4 chain: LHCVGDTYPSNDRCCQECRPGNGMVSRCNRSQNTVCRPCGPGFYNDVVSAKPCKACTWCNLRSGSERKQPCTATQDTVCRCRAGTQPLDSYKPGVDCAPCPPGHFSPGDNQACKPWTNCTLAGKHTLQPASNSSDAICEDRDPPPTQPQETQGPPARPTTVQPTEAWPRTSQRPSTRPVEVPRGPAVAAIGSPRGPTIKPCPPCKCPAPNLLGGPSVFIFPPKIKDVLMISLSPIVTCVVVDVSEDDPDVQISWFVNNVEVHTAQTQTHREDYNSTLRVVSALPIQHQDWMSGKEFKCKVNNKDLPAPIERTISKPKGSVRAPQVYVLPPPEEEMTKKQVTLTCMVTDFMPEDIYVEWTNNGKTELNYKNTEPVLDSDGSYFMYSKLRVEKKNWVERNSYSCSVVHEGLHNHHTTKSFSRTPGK
The test is described as above.

The target of test [5] is T1, human OX40 expressed on DO11.10 cells …. Nature of the test: flow cytometry on DO11.10 cells expressing the target, three experiments. The procedure: (§1) 50 μl of the antibody dilutions were added to the wells containing cells (final volume 100 μl) and incubated at 4° C. for 1 hour. […] The plates were washed and resuspended in 100 μl of PBS containing DAPI (Biotium, cat no 40043) at 1 μg/ml. The plates were analysed using a Canto II flow cytometer (BD Bioscience) and the data analysed using FlowJo. Dead cells were identified by their higher fluorescence on the UV (405 nm/450/50) channel and excluded from analysis. […] The GMFI data was fit using log (agonist) vs response (three parameters) in Graph Pad Prism Software to generate EC₅₀ values.
(§2) However, in this experiment, instead of using HEK cells to analyse the non-specific binding, non-transduced DO11.10 cells were used. […] The experiment was repeated three times to increase the reliability of the EC₅₀ values calculated.

The target of test [6] is T2, cynomolgus OX40 expressed on DO11.10 …. The test is described as above. The protocol: as §1, §2
In test [7] the target is T5, cynomolgus CD137 expressed on DO11.10 cells (DO11.10-cCD137) (cynomolgus monkey, UniProt Q07011 24-255 (human entry)).
T5 chain: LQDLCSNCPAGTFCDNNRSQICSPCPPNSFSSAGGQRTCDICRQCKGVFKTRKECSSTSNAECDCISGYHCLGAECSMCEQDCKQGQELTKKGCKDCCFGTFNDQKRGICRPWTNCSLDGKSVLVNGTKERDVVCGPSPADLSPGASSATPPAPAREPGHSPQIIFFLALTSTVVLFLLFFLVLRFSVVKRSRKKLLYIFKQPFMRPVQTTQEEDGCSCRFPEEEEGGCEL
Nature of the test: flow cytometry on DO11.10 cells expressing the target, mean ± SD of three experiments. The procedure:
as §1, §2

Test [8] has as its target T6, human CD137 expressed on DO11.10 cells (DO11.10-hCD137) (human, UniProt Q07011 24-255).
T6 construct: also called CD137 on human T cells
The test is described as above. The procedure: as §1, §2

B1: G1/MOR7480.1 (antibody, human IgG1, lambda)
heavy: not shown
light: SYELTQPPSVSVSPGQTASITCSGDNIGDQYAHWYQQKPGQSPVLVIYQDKNRPSGIPERFSGSNSGNTATLTISGTQAMDEADYYCATYTGFGSLAVFGGGTKLTVLGQPKAAPSVTLFPPSSEELQANKATLVCLISDFYPGAVTVAWKADSSPVKAGVETTTPSKQSNNKYAASSYLSLTPEQWKSHRSYSCQVTHEGSTVEKTVAPTECS
notes: also called G1/M0R7480.1
Consider B1, for which the binding result in test [1] is listed as “no binding”; in test [2], “no binding”; in test [3], “no binding (tested: 200 nM)”; in test [4], “no binding (tested: 200 nM)”.

B2: G1/FS30-10-16 (antibody, IgG1, V domains shown)
VH: EVQLLESGGGLVQPGGSLRLSCAASGFTFSSYDMSWVRQAPGKGLEWVSDIDPTGSKTDYADSVKGRFTISRDNSKNTLYLQMNSLRAEDTAVYYCARDLLVYGFDYWGQGTLVTVSS
VL: EIVLTQSPGTLSLSPGERATLSCRASQSVSSSYLAWYQQKPGQAPRLLIYGASSRATGIPDRFSGSGSGTDFTLTISRLEPEDFAVYYCQQSYSYPVTFGQGTKVEIKR
notes: IgG1 format; also called CD137 Fab (in IgG1 format; FS30-010-016)
As for B2, the binding result in test [5] and in test [6] was “no binding” each time. For the same molecule, the figures for the EC50 in test [7] and in test [8] were 0.09 nM and 0.1 nM, respectively.
